Numbering of substitutions follows the chain as printed. In names and notes the source's numbering stands. Several values for one entry are separate records, joined by “and”; a condition that tells them apart may be missing. Identical values can stand only once.
B1: Δ20-27 CtIP-NTD, human CtIP residues 18-145 with residues 20-27 deleted (domain or fragment)
chain: SDKECHDREVQGLQVKVTKLKQERILDAQRLEEFFTKNQQLREQQKVLHETIKVLEDRLRAGLCDRCAVTEEHMRKKQQEFENIRQQNLKLITELMNERNTLQEENKKLSEQLQQKIEND
B2: FLAG-tagged full-length wild-type CtIP purified from HEK-293T cells (natural protein)
chain: MNISGSSCGSPNSADTSSDFKDLWTKLKECHDREVQGLQVKVTKLKQERILDAQRLEEFFTKNQQLREQQKVLHETIKVLEDRLRAGLCDRCAVTEEHMRKKQQEFENIRQQNLKLITELMNERNTLQEENKKLSEQLQQKIENDQQHQAAELECEEDVIPDSPITAFSFSGVNRLRRKENPHVRYIEQTHTKLEHSVCANEMRKVSKSSTHPQHNPNENEILVADTYDQSQSPMAKAHGTSSYTPDKSSFNLATVVAETLGLGVQEESETQGPMSPLGDELYHCLEGNHKKQPFEESTRNTEDSLRFSDSTSKTPPQEELPTRVSSPVFGATSSIKSGLDLNTSLSPSLLQPGKKKHLKTLPFSNTCISRLEKTRSKSEDSALFTHHSLGSEVNKIIIQSSNKQILINKNISESLGEQNRTEYGKDSNTDKHLEPLKSLGGRTSKRKKTEEESEHEVSCPQASFDKENAFPFPMDNQFSMNGDCVMDKPLDLSDRFSAIQRQEKSQGSETSKNKFRQVTLYEALKTIPKGFSSSRKASDGNCTLPKDSPGEPCSQECIILQPLNKCSPDNKPSLQIKEENAVFKIPLRPRESLETENVLDDIKSAGSHEPIKIQTRSDHGGCELASVLQLNPCRTGKIKSLQNNQDVSFENIQWSIDPGADLSQYKMDVTVIDTKDGSQSKLGGETVDMDCTLVSETVLLKMKKQEQKGEKSSNEERKMNDSLEDMFDRTTHEEYESCLADSFSQAADEEEELSTATKKLHTHGDKQDKVKQKAFVEPYFKGDERETSLQNFPHIEVVRKKEERRKLLGHTCKECEIYYADMPAEEREKKLASCSRHRFRYIPPNTPENFWEVGFPSTQTCMERGYIKEDLDPCPRPKRRQPYNAIFSPKGKEQKT
B3: CtIP N-terminal domain (CtIP-NTD), human CtIP residues 18-145 (domain or fragment)
chain: SDFKDLWTKLKECHDREVQGLQVKVTKLKQERILDAQRLEEFFTKNQQLREQQKVLHETIKVLEDRLRAGLCDRCAVTEEHMRKKQQEFENIRQQNLKLITELMNERNTLQEENKKLSEQLQQKIEND
B4: L27E CtIP-NTD, human CtIP residues 18-145 with L27E (domain or fragment)
chain: B3 chain with L10E
B5: CtIP-NTD-DM, C89A C92A double mutant of CtIP residues 18-145 (domain or fragment)
chain: B3 chain with C72A, C75A
B6: F20E CtIP-NTD, human CtIP residues 18-145 with F20E (domain or fragment)
chain: B3 chain with F3E
B7: CtIP-cNTD, human CtIP residues 52-145 (domain or fragment)
chain: DAQRLEEFFTKNQQLREQQKVLHETIKVLEDRLRAGLCDRCAVTEEHMRKKQQEFENIRQQNLKLITELMNERNTLQEENKKLSEQLQQKIEND
B8: CtIP-cNTD-DM, C89A C92A double mutant of CtIP residues 52-145 (domain or fragment)
chain: B7 chain with C38A, C41A

Experiments:
SEC-MALS = target: the molecule itself; assay: SEC-MALS
SEC = target: the molecule itself; assay: SEC

Row | Protein | stoichiometry N (SEC-MALS) | binding result (SEC)
1 | B1 | 2 | –
2 | B2 | – | binds
3 | B3 | 4 | –
4 | B4 | 2 | –
5 | B5 | 4 | –
6 | B6 | 2 and 4 | –
7 | B7 | 2 | –
8 | B8 | 2 | –
9 | SDFKDLWTKLKECHDREVQGLQVKVTKLKQERILD (domain or fragment) [CtIP-nNTD, tetramerization domain of human CtIP, residues 18-52] | 4 | –
10 | SDFKDLWTKLKECHDREVQGLQVKVTKLKQERILD (domain or fragment) [CtIP-nNTD (residues 18-52) fused to a maltose-binding protein (MBP) tag] | 4 | –

Source: article PMC4564947 (Nature structural & molecular biology, 2015)
